Results published in patent US20130203080A1 (UNIVERSITE MONTPELLIER 2, published 2013).

Experiments:
[1] = molecular target: T1, glucose transporter Glut1 on human cells (B cells, B-CLL cells, red blood cells, T cells) (human, UniProt P11166 1-492); test: flow cytometry, GFP-tagged RBD on human red blood cells
T1 construct: whole, on cells; Endogenous receptor on primary human cells; the species follows from the cells; also called HTLV Env receptor
T1 sequence: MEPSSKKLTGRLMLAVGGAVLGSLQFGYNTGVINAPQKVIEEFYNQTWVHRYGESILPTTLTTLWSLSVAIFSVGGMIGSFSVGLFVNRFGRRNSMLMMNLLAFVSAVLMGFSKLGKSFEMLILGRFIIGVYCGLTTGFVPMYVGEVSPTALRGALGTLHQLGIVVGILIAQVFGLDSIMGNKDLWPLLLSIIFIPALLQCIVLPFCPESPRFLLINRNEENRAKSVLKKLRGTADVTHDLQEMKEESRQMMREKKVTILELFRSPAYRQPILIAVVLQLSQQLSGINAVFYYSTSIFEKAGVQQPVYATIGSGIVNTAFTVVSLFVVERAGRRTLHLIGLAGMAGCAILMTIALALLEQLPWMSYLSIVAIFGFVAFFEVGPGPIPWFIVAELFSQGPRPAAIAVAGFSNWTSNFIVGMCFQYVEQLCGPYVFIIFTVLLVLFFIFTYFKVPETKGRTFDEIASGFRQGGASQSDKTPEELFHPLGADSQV

[2] = molecular target: T2, PiT1 phosphate transporter on human cells (T cells, CD34 progenitor cells) (human, UniProt Q8WUM9 1-679); test: flow cytometry, tagged RBD on unstimulated and TCR-stimulated human T cells
T2 construct: whole, on cells; also called GaLV Env receptor
T2 sequence: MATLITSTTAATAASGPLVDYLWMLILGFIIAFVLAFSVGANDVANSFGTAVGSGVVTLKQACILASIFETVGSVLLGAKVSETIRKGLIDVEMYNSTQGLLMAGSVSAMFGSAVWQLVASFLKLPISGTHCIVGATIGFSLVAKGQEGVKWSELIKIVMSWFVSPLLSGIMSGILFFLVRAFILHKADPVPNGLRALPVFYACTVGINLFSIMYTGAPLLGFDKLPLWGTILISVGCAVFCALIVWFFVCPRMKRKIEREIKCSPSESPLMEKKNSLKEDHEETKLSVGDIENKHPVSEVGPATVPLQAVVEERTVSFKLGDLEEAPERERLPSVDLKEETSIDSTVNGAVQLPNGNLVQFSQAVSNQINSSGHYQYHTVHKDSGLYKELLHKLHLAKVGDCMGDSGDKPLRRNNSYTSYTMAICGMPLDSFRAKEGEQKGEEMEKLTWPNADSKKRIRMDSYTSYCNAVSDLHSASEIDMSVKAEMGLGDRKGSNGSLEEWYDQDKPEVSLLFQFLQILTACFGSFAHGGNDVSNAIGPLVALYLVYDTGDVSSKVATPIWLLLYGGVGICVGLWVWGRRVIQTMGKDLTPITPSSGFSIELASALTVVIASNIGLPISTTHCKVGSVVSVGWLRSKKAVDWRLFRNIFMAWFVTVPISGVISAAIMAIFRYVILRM

[3] = molecular target: T3, PiT1 phosphate transporter on murine cells (CD4+ T cells; cerebellar cortex sections) (mouse, UniProt Q61609 1-681); test: flow cytometry, RBD on murine CD4+ T cells polarised to Th0, Th1, Th2, Th17 or iTreg, day 4
T3 construct: whole, on cells
T3 sequence: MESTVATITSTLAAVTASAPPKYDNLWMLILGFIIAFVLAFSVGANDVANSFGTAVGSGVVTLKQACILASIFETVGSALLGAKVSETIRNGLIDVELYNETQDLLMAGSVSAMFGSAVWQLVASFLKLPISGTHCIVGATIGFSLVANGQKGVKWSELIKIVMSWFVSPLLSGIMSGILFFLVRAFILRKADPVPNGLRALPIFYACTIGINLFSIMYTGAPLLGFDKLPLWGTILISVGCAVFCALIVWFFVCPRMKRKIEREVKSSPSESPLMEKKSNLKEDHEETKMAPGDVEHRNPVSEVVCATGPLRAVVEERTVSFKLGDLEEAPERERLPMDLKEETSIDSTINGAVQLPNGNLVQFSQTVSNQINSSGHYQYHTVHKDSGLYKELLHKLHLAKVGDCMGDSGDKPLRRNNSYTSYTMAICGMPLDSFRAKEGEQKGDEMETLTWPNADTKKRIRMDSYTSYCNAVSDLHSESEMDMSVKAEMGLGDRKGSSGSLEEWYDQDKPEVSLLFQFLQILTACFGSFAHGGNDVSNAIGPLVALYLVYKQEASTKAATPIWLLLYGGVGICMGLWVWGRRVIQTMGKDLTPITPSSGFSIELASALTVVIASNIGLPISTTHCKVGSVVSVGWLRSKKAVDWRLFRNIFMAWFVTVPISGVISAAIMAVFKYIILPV

[4] = molecular target: T3, PiT1 phosphate transporter on murine …; test: fluorescence staining of mouse cerebellum cryosections with RBD-rFc, biotinylated anti-rabbit IgG, Streptavidin-Alexa488

B1: HTLV2 (SEQ ID NO: 28) tagged with a green fluorescent protein (GFP) (ligand)
chain: QQSRCTLTVGISSYHSSPCSPTQPVCTWNLDLNSLTTDQRLHPPCPNLITYSGFHKTYSLYLFPHWIKKPNRQGLGYYSPSYNDPCSLQCPYLGCQSWTCPYTGPVSSPSWKFHSDVNFTQEVSQVSLRLHFSKCGSSMTLLVDAPGYDPLWFITSEPTQPPPTSPPLVHDSDLEHVLTPSTSWTTKILKFIQLTLQSTNYSCMVC
notes: also called HRBD-EGFP; non antibody Glut1-ligand; not shown: green fluorescent protein tag (GFP / EGFP)
B1: binds [1].

B2: Gibbon Ape Leukemia virus (GALV) Env receptor binding domain, tagged soluble receptor binding ligand (ligand)
chain: TSLQNKNPHQPMTLTWQVLSQTGDVVWDTKAVQPPWTWWPTLKPDVCALAASLESWDIPGTDVSSSKRVRPPDSDYTAAYKQITWGAIGCSYPRARTRMASSTFYVCPRDGRTLSEARRCGGLESLYCKEWDCETTGTGYWLSKSSKDLITVKWDQNSEWTQKFQQCHQTGWCNPLKIDFTDKGKLSKDWITGKTWGLRFYVSGHPGVQFTIRLKITNMPAVAVGPDLVLVEQGPPRTSLALPPPLPPREAPPPSLPDSNSTALATSAQTPTVRKTIVTLNTPPPTTGDRLFDLVQGAFLTLNATNPGATESCWLC
notes: also called GaLV RBD; not shown: tag not specified
B2: binds [2]; binds [3].

B3: Gibbon ape Leukemia Virus-RBD soluble RBD-rFc fusion protein (Fc fusion)
chain: B2 chain
notes: also called GRBD; not shown: rabbit IgG Fc (rFc)
B3: binds [4].
